Target: full-length rabbit TRPV5 (transient receptor potential vanilloid 5) (rabbit) (UniProt Q9XSM3)
Experiment: cryo-EM structure; detergent solubilized TRPV5 (DMNG) incubated 1 h with 10 mM CaCl2 and rat CaM at 1:20 (TRPV5 tetramer:CaM), then SEC; map at 4.4 Å without applied symmetry

Chain of full-length rabbit TRPV5 (transient receptor potential vanilloid 5) (rabbit) (Q9XSM3 whole entry): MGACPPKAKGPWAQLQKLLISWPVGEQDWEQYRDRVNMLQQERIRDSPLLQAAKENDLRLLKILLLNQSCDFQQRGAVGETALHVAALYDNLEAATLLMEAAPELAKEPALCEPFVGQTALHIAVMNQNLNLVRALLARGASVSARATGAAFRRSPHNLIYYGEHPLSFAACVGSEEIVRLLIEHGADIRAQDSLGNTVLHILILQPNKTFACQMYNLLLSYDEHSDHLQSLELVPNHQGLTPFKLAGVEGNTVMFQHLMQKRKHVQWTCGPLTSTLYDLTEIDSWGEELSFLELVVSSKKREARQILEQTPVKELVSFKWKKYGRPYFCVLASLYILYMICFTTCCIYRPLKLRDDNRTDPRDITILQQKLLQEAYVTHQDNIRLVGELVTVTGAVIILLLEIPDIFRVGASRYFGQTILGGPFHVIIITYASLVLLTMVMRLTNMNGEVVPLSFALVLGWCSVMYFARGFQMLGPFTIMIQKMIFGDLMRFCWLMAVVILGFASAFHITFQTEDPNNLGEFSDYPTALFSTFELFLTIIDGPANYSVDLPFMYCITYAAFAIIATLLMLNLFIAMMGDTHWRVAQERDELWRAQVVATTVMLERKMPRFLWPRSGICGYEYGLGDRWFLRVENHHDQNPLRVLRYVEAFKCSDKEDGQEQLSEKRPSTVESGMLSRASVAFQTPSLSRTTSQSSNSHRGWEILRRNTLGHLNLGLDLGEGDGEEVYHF

stoichiometry N (CaM per TRPV5 tetramer): 1
Substance: rat calmodulin (CaM), calcium-activated (from UniProt P0DP29 1-149) (natural protein)

From paper PMC6179994
